# ± gives the uncertainty stated by the source.
# B1: PDZ and LIM domain protein 2, residues 284 to 339; numbered along this chain, Q96JY6 (parent)
# chain: HTCEKCSTSIANQAVRIQEGRYRHPGCYTCADCGLNLKMRGHFWVGDELYCEKHAR
# B2: Chromodomain-helicase-DNA-binding protein 4, residues 623 to 675; numbered along this chain, Q14839 (parent)
# chain: MIHRILNHSVDKKGHVHYLIKWRDLPYDQASWESEDVEIQDYDLFKQSYWNHR
# Variants of: B1
# Experiment: abundance fitness (aPCA) (normalised: wild type 0, dead -1); higher = more abundant; growth selection in yeast, the domain comes from the species named
# Details: Homo sapiens
row,Variant,abundance fitness
1,MTCEKCSTSIANQAVRIQEGRYRHPGCYTCADCGLNLKMRGHFWVGDELYCEKHAR [H1M],0.268 ± 0.41
2,RTCEKCSTSIANQAVRIQEGRYRHPGCYTCADCGLNLKMRGHFWVGDELYCEKHAR [H1R],-0.222 ± 0.11
3,ATCEKCSTSIANQAVRIQEGRYRHPGCYTCADCGLNLKMRGHFWVGDELYCEKHAR [H1A],-0.24 ± 0.27
4,QTCEKCSTSIANQAVRIQEGRYRHPGCYTCADCGLNLKMRGHFWVGDELYCEKHAR [H1Q],-0.669 ± 0.25
5,GTCEKCSTSIANQAVRIQEGRYRHPGCYTCADCGLNLKMRGHFWVGDELYCEKHAR [H1G],-0.247 ± 0.36
6,DTCEKCSTSIANQAVRIQEGRYRHPGCYTCADCGLNLKMRGHFWVGDELYCEKHAR [H1D],-0.317 ± 0.48
7,HHCEKCSTSIANQAVRIQEGRYRHPGCYTCADCGLNLKMRGHFWVGDELYCEKHAR [T2H],0.144 ± 0.17
8,HNCEKCSTSIANQAVRIQEGRYRHPGCYTCADCGLNLKMRGHFWVGDELYCEKHAR [T2N],0.177 ± 0.11
9,HKCEKCSTSIANQAVRIQEGRYRHPGCYTCADCGLNLKMRGHFWVGDELYCEKHAR [T2K],0.003 ± 0.08
10,HMCEKCSTSIANQAVRIQEGRYRHPGCYTCADCGLNLKMRGHFWVGDELYCEKHAR [T2M],-0.51 ± 0.21
11,HGCEKCSTSIANQAVRIQEGRYRHPGCYTCADCGLNLKMRGHFWVGDELYCEKHAR [T2G],-0.899 ± 0.13
12,HQCEKCSTSIANQAVRIQEGRYRHPGCYTCADCGLNLKMRGHFWVGDELYCEKHAR [T2Q],-0.339 ± 0.08
13,HDCEKCSTSIANQAVRIQEGRYRHPGCYTCADCGLNLKMRGHFWVGDELYCEKHAR [T2D],-0.305 ± 0.31
14,HACEKCSTSIANQAVRIQEGRYRHPGCYTCADCGLNLKMRGHFWVGDELYCEKHAR [T2A],-0.578 ± 0.12
15,HLCEKCSTSIANQAVRIQEGRYRHPGCYTCADCGLNLKMRGHFWVGDELYCEKHAR [T2L],-0.834 ± 0.12
16,HECEKCSTSIANQAVRIQEGRYRHPGCYTCADCGLNLKMRGHFWVGDELYCEKHAR [T2E],-0.597 ± 0.078
17,HICEKCSTSIANQAVRIQEGRYRHPGCYTCADCGLNLKMRGHFWVGDELYCEKHAR [T2I],0.208 ± 0.16
18,HCCEKCSTSIANQAVRIQEGRYRHPGCYTCADCGLNLKMRGHFWVGDELYCEKHAR [T2C],-0.323 ± 0.16
19,HPCEKCSTSIANQAVRIQEGRYRHPGCYTCADCGLNLKMRGHFWVGDELYCEKHAR [T2P],-0.66 ± 0.08

# Variants of: B2
# Experiment: as above
# Details: Homo sapiens
row,Variant,abundance fitness
1,I2G,-0.802 ± 0.12
2,I2Q,-0.931 ± 0.17
3,I2S,-0.708 ± 0.09
4,I2F,-0.945 ± 0.13
5,I2M,-0.761 ± 0.13
6,I2W,-0.856 ± 0.24
7,I2T,-0.686 ± 0.099
8,D36T,-0.2 ± 0.11
9,D36C,-0.363 ± 0.13
10,D36N,0.134 ± 0.11
11,Y27R,0.04 ± 0.089
12,Y27F,-0.118 ± 0.085
13,Y27T,0.077 ± 0.086
14,Y27G,-0.201 ± 0.16
15,Y27N,0.042 ± 0.11
16,Y27W,-0.18 ± 0.26
17,I39T,-0.72 ± 0.13
18,I39A,-0.805 ± 0.12
19,I39N,-1.06 ± 0.24
20,I39Y,-0.195 ± 0.14
21,I39G,-0.847 ± 0.12
22,E33Y,-0.406 ± 0.15
23,E33P,-0.895 ± 0.16
24,E33V,0.036 ± 0.11
25,E33N,-0.651 ± 0.21
26,F45A,-0.013 ± 0.085

row,Variant,abundance fitness
1,F45W,-0.279 ± 0.13
2,F45S,-0.444 ± 0.077
3,F45E,-0.735 ± 0.28
4,F45N,-0.627 ± 0.12
5,Y49L,-0.751 ± 0.12
6,Y49K,-0.658 ± 0.15
7,Y49S,-0.953 ± 0.13
8,Y49T,-0.916 ± 0.11
9,Y49C,-1.01 ± 0.18
10,A30P,-0.356 ± 0.15
11,A30S,-0.325 ± 0.16
12,A30Q,-0.866 ± 0.31
13,N51I,-0.564 ± 0.23
14,N51K,-0.167 ± 0.13
15,N51Q,0.004 ± 0.14
16,N51R,0.105 ± 0.089
17,N51H,-0.23 ± 0.14
18,D28C,-0.025 ± 0.14
19,D28R,-0.169 ± 0.096
20,D28N,-0.028 ± 0.11
21,H52T,0.185 ± 0.14
22,H52P,-0.363 ± 0.15
23,H52L,-0.017 ± 0.13
24,H52G,0.022 ± 0.082
25,H52N,0.023 ± 0.18
26,H52V,-0.016 ± 0.11
